B1: TRIM43 (parent)
chain: FCDMDKSLLCLLCSNSQEHGAHKH
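Also: lentivirally expressed fusions sorted by FACS into six bins by GFP to DsRed ratio, PSI derived from sequencing read proportions per bin multiplied by bin number.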

Variants of: B1
Assay: protein stability index of a GFP-peptide fusion (GPS, HEK-293T) (PSI 1-6); higher = more stable
Settings: c terminus: a fixed tail appended
For FCDMDKSLLCLQCSNSQEHGAHKH, the protein stability index was 2.65. For FCDMDKSLLCLFCSNSQEHGAHKH, the protein stability index was 1.47. For FCDMDKSLLCLICSNSQEHGAHKH, the protein stability index was 1.78. Variant FCDMDKSLLCLHCSNSQEHGAHKH has a protein stability index of 2.78. In the case of FCDMDKSLLCLVCSNSQEHGAHKH, the protein stability index is reported as 1.93. Work on FCDMDKSLLCLGCSNSQEHGAHKH yielded a protein stability index of 1.57. Work on FCDMDKSLLCLPCSNSQEHGAHKH yielded a protein stability index of 1.91. Work on FCDMDKSLLCLTCSNSQEHGAHKH yielded a protein stability index of 1.95. Variant FCDMDKSLLCLRCSNSQEHGAHKH has a protein stability index of 1.96. FCDMDKSLLCLKCSNSQEHGAHKH showed a protein stability index of 2.12. In the case of FCDMDKSLLCLACSNSQEHGAHKH, the protein stability index is reported as 1.92. FCDMDKSLLCLECSNSQEHGAHKH showed a protein stability index of 2.55. FCDMDKSLLCLMCSNSQEHGAHKH gave a protein stability index of 2.06. For FCDMDKSLLCLWCSNSQEHGAHKH, the protein stability index was 3.13. In the case of FCDMDKSLLCLDCSNSQEHGAHKH, the protein stability index is reported as 2.32. In the case of FCDMDKSLLCLCCSNSQEHGAHKH, the protein stability index is reported as 2.56. Variant FCDMDKSLLCLYCSNSQEHGAHKH has a protein stability index of 1.75. With FCDMDKSLLCLNCSNSQEHGAHKH the protein stability index was 2.14. With FCDMDKSLLCLSCSNSQEHGAHKH the protein stability index was 2.65. FCDMDKSLLCLLCSDSQEHGAHKH gave a protein stability index of 2.26. For FCDMDKSLLCLLCSYSQEHGAHKH, the protein stability index was 2.09. Work on FCDMDKSLLCLLCSGSQEHGAHKH yielded a protein stability index of 1.94. In the case of FCDMDKSLLCLLCSASQEHGAHKH, the protein stability index is reported as 1.6. For FCDMDKSLLCLLCSWSQEHGAHKH, the protein stability index was 1.89. Variant FCDMDKSLLCLLCSSSQEHGAHKH has a protein stability index of 2.07. Work on FCDMDKSLLCLLCSVSQEHGAHKH yielded a protein stability index of 1.89. Variant FCDMDKSLLCLLCSCSQEHGAHKH has a protein stability index of 1.77. FCDMDKSLLCLLCSRSQEHGAHKH gave a protein stability index of 2.1. Work on FCDMDKSLLCLLCSKSQEHGAHKH yielded a protein stability index of 2.26. FCDMDKSLLCLLCSFSQEHGAHKH gave a protein stability index of 2.01. FCDMDKSLLCLLCSISQEHGAHKH showed a protein stability index of 2.49. FCDMDKSLLCLLCSESQEHGAHKH showed a protein stability index of 1.92. For FCDMDKSLLCLLCSPSQEHGAHKH, the protein stability index was 1.34. In the case of FCDMDKSLLCLLCSQSQEHGAHKH, the protein stability index is reported as 1.87. FCDMDKSLLCLLCSHSQEHGAHKH showed a protein stability index of 1.55. FCDMDKSLLCLLCSMSQEHGAHKH showed a protein stability index of 1.66. FCDMDKSLLCLLCSTSQEHGAHKH showed a protein stability index of 1.77. Variant FCDMDKSLLCLLCSLSQEHGAHKH has a protein stability index of 2.4. FCDMDKSLLCLLCSNEQEHGAHKH gave a protein stability index of 1.8. For FCDMDKSLLCLLCSNAQEHGAHKH, the protein stability index was 1.8. In the case of FCDMDKSLLCLLCSNDQEHGAHKH, the protein stability index is reported as 1.97. Work on FCDMDKSLLCLLCSNFQEHGAHKH yielded a protein stability index of 2.13. FCDMDKSLLCLLCSNGQEHGAHKH gave a protein stability index of 2.22. With FCDMDKSLLCLLCSNCQEHGAHKH the protein stability index was 1.87. FCDMDKSLLCLLISNSQEHGAHKH showed a protein stability index of 2.04. Variant FCDMDKSLLCLLQSNSQEHGAHKH has a protein stability index of 2.53. Work on FCDMDKSLLCLLNSNSQEHGAHKH yielded a protein stability index of 1.87. With FCDMDKSLLCLLMSNSQEHGAHKH the protein stability index was 2.19. FCDMDKSLLCLLASNSQEHGAHKH gave a protein stability index of 1.15. Work on FCDMDKSLLCLLRSNSQEHGAHKH yielded a protein stability index of 2.13. With FCDMDKSLLCLLYSNSQEHGAHKH the protein stability index was 1.68. With FCDMDKSLLCLLSSNSQEHGAHKH the protein stability index was 1.61. Work on FCDMDKSLLCLLFSNSQEHGAHKH yielded a protein stability index of 1.89. FCDMDKSLLCLLPSNSQEHGAHKH showed a protein stability index of 2.13. Variant FCDMDKSLLCLLHSNSQEHGAHKH has a protein stability index of 1.88. FCDMDKSLLCLLDSNSQEHGAHKH gave a protein stability index of 1.99. FCDMDKSLLCLLGSNSQEHGAHKH gave a protein stability index of 1.9. FCDMDKSLLCLLVSNSQEHGAHKH gave a protein stability index of 2.3. For FCDMDKSLLCLLESNSQEHGAHKH, the protein stability index was 2.13. FCDMDKSLLCLLWSNSQEHGAHKH gave a protein stability index of 2.72. FCDMDKSLLCLLKSNSQEHGAHKH gave a protein stability index of 2.15. Work on FCDMDKSLLCLLLSNSQEHGAHKH yielded a protein stability index of 2.07. Work on FCDMDKSLLCLLTSNSQEHGAHKH yielded a protein stability index of 1.83. In the case of FCDMDKSLLCTLCSNSQEHGAHKH, the protein stability index is reported as 2.51. FCDMDKSLLCPLCSNSQEHGAHKH gave a protein stability index of 1.83. With FCDMDKSLLCKLCSNSQEHGAHKH the protein stability index was 2.2. FCDMDKSLLCNLCSNSQEHGAHKH gave a protein stability index of 2.07. For FCDMDKSLLCILCSNSQEHGAHKH, the protein stability index was 2.25. FCDMDKSLLCYLCSNSQEHGAHKH showed a protein stability index of 2.26. For FCDMDKSLLCMLCSNSQEHGAHKH, the protein stability index was 1.86. Work on FCDMDKSLLCSLCSNSQEHGAHKH yielded a protein stability index of 1.8. For FCDMDKSLLCQLCSNSQEHGAHKH, the protein stability index was 2.36. Variant FCDMDKSLLCRLCSNSQEHGAHKH has a protein stability index of 2.19. FCDMDKSLLCVLCSNSQEHGAHKH showed a protein stability index of 1.63. For FCDMDKSLLCWLCSNSQEHGAHKH, the protein stability index was 2.79. For FCDMDKSLLCLLCANSQEHGAHKH, the protein stability index was 1.87. FCDMDKSLLCLLCFNSQEHGAHKH showed a protein stability index of 1.45. FCDMDKSLLCLLCDNSQEHGAHKH gave a protein stability index of 1.72. In the case of FCDMDKSLLCLLCRNSQEHGAHKH, the protein stability index is reported as 2.2. Work on FCDMDKSLLCLLCENSQEHGAHKH yielded a protein stability index of 2.02. FCDMDKSLLCLLCVNSQEHGAHKH gave a protein stability index of 1.71. FCDMDKSLLCLLCNNSQEHGAHKH showed a protein stability index of 2.01. FCDMDKSLLCLLCCNSQEHGAHKH showed a protein stability index of 1.88. Variant FCDMDKSLLCLLCYNSQEHGAHKH has a protein stability index of 1.82. Work on FCDMDKSLLCLLCTNSQEHGAHKH yielded a protein stability index of 2.02. For FCDMDKSLLCLLCKNSQEHGAHKH, the protein stability index was 2.12. FCDMDKSLLCLLCPNSQEHGAHKH showed a protein stability index of 1.98. Work on FCDMDKSLLCLLCGNSQEHGAHKH yielded a protein stability index of 2.26. Work on FCDMDKSLLCLLCHNSQEHGAHKH yielded a protein stability index of 1.87. With FCDMDKSLLCLLCWNSQEHGAHKH the protein stability index was 2.06. Work on FCDMDKSLLCLLCINSQEHGAHKH yielded a protein stability index of 1.52. For FCDMDKSLLCLLCQNSQEHGAHKH, the protein stability index was 2.09. With FCDMDKSLLCLLCMNSQEHGAHKH the protein stability index was 1.85. FCDMDKSLLCLLCLNSQEHGAHKH gave a protein stability index of 2.08.
